According to the domain aggregation screens of Martell et al. (2025):

Assay: soluble fraction after stress (log2 fold change); higher = more stays soluble; pooled small domains, quantitative proteomics
Settings: stress: 50 degC
Outline: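 After stress at 50°C, the amount of each protein still soluble was measured. This was done on pooled custom libraries of small protein domains, using high-throughput quantitative proteomics. The figure given is a base-two log fold change and stands for aggregation propensity, with higher values meaning more protein stays in solution.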

| Sequence | soluble fraction (log2) |
| --- | --- |
| HMEDPLAAQWKQGRKLFHDDYGYGIISKAFTAGDELVIMVQFENGGEKRFLPKYQAHNLLLVEQ | -0.218 |
| HMITPAGVPPALLPVFDQFTLPDGTLRRGAVAAALRALYGPDAPQSGKRYQMEYDRVMAWHSQYFTSLH | -0.34 |
| HMSLGSSLFHARKKSGLTQEAVAEKLGVSRQTISKWETNETLPDIRQSKGLAMLYHMTLDELIE | -0.223 |
| HMNFNYPVIVKNSRINVSGVLSAAKLYTINGQLLQSYKGSGEFTSKTLTKGIYILQVDNARTKVLV | -1.29 |
| HMIMNEYEELRDRYLIGQIWKIGDLIEAKGIEGKIIQRGTNYVTFNDNNGKVHKAWLHEIKYEQ | -0.343 |
| HMKFGETLIDLRKRNGLTQEELAAKLYVTRQAVSRWERGEVTPGIDMLKLIANVLNEPVAHLLDW | -0.977 |
| HMSAPAMTLDSIRSLLNDRDPWVVTQTVEWLVGLGPQVKTILETLTLESSDAARQAQNALDRINVRNYP | -0.155 |
| HMAPVEEWAKASVMEDPTLVTETMARIFAQQGQIGKARKAYRHLALTYPAKSTYFAAQLKKLNQR | -0.259 |
| HMSRREEALIALAQRVARQVARTKQPVTLEPMPANERRVIHVALRDNPDVETRSSGEGDQRRVTVYPRQ | 0.05 |
| HMSGEIPFPPAFKPSADHIAIASEKGINIETELLNFRDYHQARGTKLIDWNSAFRVWLRNAR | -0.144 |
| HMQTYTYYIAKNDISIGQKITPDMLIEKQVNLGDSKDRYLSREQLETGKYIAVRQIPAGELISSASANE | 0.157 |
| HMFNFPEEVRVQLAKSEQLRNLLIPMSETVRDALSGEELWFGRTIFNTTSKKIESWTNPGVWVE | -1.45 |
| HMASEKSEQLYQQMKLDIAGMPPDTRLPSIRALMRSYSVSQLLIDRTLGRLREEGALRKRFDGLYTYL | -2.06 |
| HMKRQDFEFLVNLLRQNAGWDFDEEQYFVVDKKISNFIREKGYASVEDLIDELKVGAKPLISQVVESLAL | -0.622 |
| HMTKYREVLRMSAGGFSQRVIASTLSISRNTVASTLKRAREQNLDWEAVEQQRLSEKDIANLLFP | -0.996 |
| HMTFTQFAESHGVIIKSLKASDKIQRGPTVAHPKSDNGAWLWDGNRGGVMAWDGDGQWYWFK | -1.95 |
| HMDWNPVRDITAHQVLAILQATHIRAPTVAAEAKRTLSSIFQFAVATLRADIDPVWPVRNALPKNKT | 0.00605 |
| HMNEISLKEITIEEDHPWRDKKIKELDLKEHILVAMIRRKDQDIIPNGETKIYKDDILVIYD | 0.144 |
| HMVTPPMVVVDVQGEVKTPGVYHLPTNSRVNDAIKAAGGPKQSADLSYINQARMVKDGEQIYVEKKL | 0.12 |

| Sequence | soluble fraction (log2) |
| --- | --- |
| HMTPEPVTMYITSLTEFRSEPNTEAGIIKLLDAYEEVEMIESRGEWSKISYGDQIGYILSEFLTAENRT | -0.0121 |
| HMGHTKLVVDIVEELKLEQGALLPILHAIQDELGYVPTKSVPFIADSLNLSRAEVHGVISFYHYFR | 0.15 |
| HMGTSIMIIIVKPETKKERVNDLIHWIESQNLRTHLSTGDYSTIIGVIGDTSKLDSELIRGLDIVENVKRV | -0.318 |
| HMQSYSYYDFQKALQNKTVESVIIEPDKTVPTGTLQIQLKGDTKEELNVSDVTEVEELLQSYDVDYKLRSV | 0.131 |
| HMVTEIDYGAFIKMTEEGNIGEVKIEDNQIVFTDKENKAIYKTGIMPDSDLTQRLYDSGAVFA | 0.0785 |
| HMSQLDITEARIVVSGGLGMQGPENFKLLEELAKVLGGAVGASRPVVDNGWREYSNQVGQTGKIVAPELYV | -0.0903 |
| HMAATVKVPDLTKMTPDEAQRALGQVGLKGKQGDDVDDDSVPVGYIAKQDEAPNSDAKAGDTITYHL | 0.16 |
| HMLPSWLPTDAWEAFLEARVAMKARPTERAKGLLLGELSKLVSQGQDARAVLEQSVQRGWRGLFPVK | -1.52 |
| HMSLNIIEITAKKEINELKSFNIIYFNFDKNNSIYEYKISEREKKEILEIEKIIKNSDNVTNYEIRYSF | -0.52 |
| HMDIPITFEQLPAKAQAFVKQYFKIEEIASVWRDDDIHDQDYKVYFNDGSEIEFYANGDWEEV | -0.62 |
| HMSSARKVTVRGVRELPGIFMEKAEILDDGVRFFYRGEMEKLIGALQGLPIRDLTITEPDLEEVFLHFY | -1.09 |
| HMQSSTAISFNQFQKSWLSNNIKSFQLGEDKMTVRGSLKNGTQYETIVPSERLFQFIGQHPKDGQVQEMY | 0.042 |
| HMRGPTIELLIQKSALYEELDDSENALKEILKAFDRDSLNSDVLNRLVNLLLNDKQIDRAENYNQLLIEK | -0.32 |
| HMLPRLVLSPGTEVLATVMGKYENGMSLVKISSHLFAMDLPSRVQVGDSLRMTFLHQDARPTFALA | -0.779 |
| HMQLPTPEDLKKRRNELGLTQSDLAKRAGVSQPLIARIESGDVDPRLSTVRKILDAFEEVEKEQQ | 0.0795 |
| HMKEKPLWAIRITELREEHYFTQTDVSKALGIAQTTYAGYETGRHEPDFETMIKIADIYKVSLDYLIGR | -1.27 |
| HMFDEDKLIISIGSKVRIIREPYFGTIGKVVELPPELVKMDTEAMLRVAIIKLDDGEKVTIPRANLEVILS | -1.22 |
| HMAELNLPVRKIGGEDYYYRQVKKKETIYGISKELGITKEDIIKYNPSVASGLQRNQILYFPVKDFK | -0.0957 |
